Laboratory results: paper PMC5431456

Columns and labels:
[1] = target: SubB ΔS106/ΔT107 (Escherichia coli) (UniProt Q6EZC3); experiment: SPR
[2] = target: SubB ΔS106/ΔT107/E108D (Escherichia coli) (UniProt Q6EZC3); experiment: SPR
[3] = target: SubB S106A/T107A (Escherichia coli) (UniProt Q6EZC3); experiment: SPR
[4] = target: Subtilase cytotoxin B subunit (SubB), wild type (Escherichia coli) (UniProt Q6EZC3); experiment: SPR; Biacore T100; SubB or SubB mutant immobilised on a series S CM5 chip (flow cell 1 blank); AGP flowed over, 0.01-100 µM in range finding; single cycle kinetics

Substance: human α1-acid glycoprotein (AGP) (from UniProt P02763 19-201) (natural protein)
- Kd [1]: 1650 nM
- Kd [2]: 2820 nM
- Kd [3]: 723 nM
- Kd [4]: 2120 nM
